The values that follow come from doi:10.1101/2025.01.22.634233.

A word on the pKd: it is the Kd on a negative log10 scale, so that one unit is a factor of ten.

What all share (assay): fluorescence polarisation
Background: In fluorescence polarisation assays a small probe gives low polarisation when free and higher when bound to something large.

Experiment [1] concerns the target non-phosphorylated (CTD)2 peptide, 5,6-FAM-labelled.
Experiment [2] concerns the target pY1pS5-(CTD)2 peptide, 5,6-FAM-labelled.
For experiment [3], the target named is pS5-(CTD)2 peptide, 5,6-FAM-labelled.

pKd: −log10 of the molar value.

As for “BRCA1 BRCT (BRCA1^1646-1859), wild type (from UniProt P38398 1646-1859) (domain or fragment)”, the pKd in experiment [1] was 3.02; in experiment [2], 3.74.
Substance “BRCA1 BRCT R1699L (from UniProt P38398 1646-1859) (domain or fragment)” had a pKd in experiment [3] of 3.38.
Same read-out and setting: the figure for “BRCA1 BRCT^S1655F,K1702M (from UniProt P38398 1646-1859) (domain or fragment)” is 3.05.
